For data set [1], the target named is alpha-fetoprotein (AFP) receptor (AFPR) (human). Put plainly: AF-647 labeled rhAFP incubated with H522 cells at 37 C for 0.5, 2 and 5 h, plate reader fluorescence.
The target is the same in data set [2]. The experiment in a line: AF-647 labeled rhAFP incubated with MCF7 cells at 37 C for 0.5, 2 and 5 h, plate reader fluorescence.
Data set [3] has the same target. Put plainly: AF-647 labeled rhAFP incubated with U-937 cells at 37 C for 0.5, 2 and 5 h, plate reader fluorescence.
Data set [4] has the same target. The experiment in a line: AF-647 labeled rhAFP incubated with MOLT-4 cells at 37 C for 0.5, 2 and 5 h, plate reader fluorescence.
For data set [5] the target is unchanged. The experiment in a line: AF-647 labeled rhAFP incubated with SKOV-3 cells at 37 C for 0.5, 2 and 5 h, plate reader fluorescence.
Data set [6] has the same target. Put plainly: AF-647 labeled rhAFP incubated with OVCAR-3 cells at 37 C for 0.5, 2 and 5 h, plate reader fluorescence.
For data set [7] the target is unchanged. Put plainly: AF-647 labeled rhAFP incubated with COLO 205 cells at 37 C for 0.5, 2 and 5 h, plate reader fluorescence.
Data set [8] deals with COLO-205 colorectal cancer xenografts. Put plainly: COLO-205 colon carcinoma xenograft efficacy, daily dosing for 2 weeks. The class given is in vivo, mice. To be noted: dosed at MTD, FIG. 2. How it is done: In the colon carcinoma xenograft model, 7 week old athymic male mice were implanted with 1×10^7 COLO-205 cells subcutaneously in the right flank. Mice with tumors of approximately 100 mm^3 to 200 mm^3 were randomized to receive control (vehicle) or one of the 4 bioconjugates (10 animals/group). Animals were treated daily for 2 weeks with 2 days of rest after 5 doses; tumor volume was assessed twice weekly for 60 days following implantation. FIGS. 2 and 3 reveal the valuable properties of the present bioconjugates in the COLO 205 human xenograft model of colon cancer as shown by this study.

In the next data set the test system is COLO-205 cells. Put plainly: CellTiter-Glo cell viability, 72 hours. It is filed as cell-based, human. As to the method:
Turning to Table 5, two bioconjugates of each of AFP-ABZ982 and AFP-ABZ1827 (4 in total) were prepared at DPRs of approximately 4 (“low DPR”) and 6 (“high DPR”) for efficacy testing in vivo in the COLO-205 human tumor xenograft model. Potency in the COLO-205 cell line prior to implantation was assessed. Briefly, 96 well plates were seeded with COLO-205 cells either at 5,000 or 2,500 cells per well in a total volume to 50 μL per well. Plates were incubated overnight then treated with the bioconjugate at 37° C. for 72 hours and then a CellTiter-Glo assay was performed to measure cell viability. Samples were run in triplicate.

Data set [9] in a line: Maximum tolerated dose in healthy mice. It is filed as in vivo. To be noted: Q1D×5 for 2 weeks, clinical observations and AST/ALT. How it is done: The four ABZ981-containing bioconjugates above were resynthesized and formulated in a 10 mM HEPES buffer, 5% sucrose at pH 7.5 (Table 6). Prior to testing the efficacy in tumor-bearing mice, the maximum tolerated dose (MTD) was determined for each bioconjugate in healthy mice, employing the same dosing regimen used for the efficacy study (Q1D×5 for 2 weeks) at doses of 0, 5, 10, 20 and 40 mg/kg. MTD was based on clinical observations made daily during the dosing period and elevations of liver enzymes (AST/ALT) determined at the end of treatment. […] In general, a bioconjugate with a higher DPR which carries a larger amount of toxin would be expected to have a lower MTD.

The subject of a further data set is COLO 205. Put plainly: Binding of AF-647 labeled rhAFP (ACT-101) to tumor cells. The note with it: COLO 205, metastatic colorectal adenocarcinoma. Further details: species or system human. How it is done:
(§1) Prior to testing lead compounds in vitro, the expression of the AFP receptor and ability of cells to bind and take up fluorescently-labelled rhAFP was established in the U937 cell line as well as other cell lines, as in the study summarized in Table 1 below. In this study, rhAFP was labeled using the procedures described in the product protocol from commercially available Alexa Fluor-647 (AF-647) protein labeling kits. Binding experiments were performed in 96-well plates and fluorescence was measured using a plate reader. Tumor cells were cultured in suspension or plated in cell culture media. Each tumor cell line was incubated with AF-647 labeled rhAFP at 37° C. for 0.5, 2 and 5 hours (n=3 replicates). Incubation was stopped by chilling on ice. For cells in suspension, cells and culture medium were collected separately by centrifugation and subjected to repeat wash steps. For plated cells, trypsin/EDTA was used for cell detachment.

For another data set, the system named is H522. The data set is described as above. Further details: species or system human. The note with it: H522, non-small cell lung adenocarcinoma. How it is done: as §1
The subject of the next data set is MCF7. Described as above. On the set-up: species or system human. The note with it: MCF7, breast adenocarcinoma. How it is done: as §1
The test system of another data set is MOLT-4. The data set is described as above. The note with it: MOLT-4, acute lymphoblastic leukemia. Further details: species or system human. How it is done: as §1
Another data set concerns OVCAR-3. The description is as above. On the set-up: species or system human. The note with it: OVCAR-3, ovary adenocarcinoma; 37° C., 0.5, 2 and 5 hours. As to the method: as §1
The test system of data set [10] is SKOV-3. The description is as above. On the set-up: species or system human. The note with it: SKOV-3, ovary adenocarcinoma. As to the method:
as §1

For another data set, the system named is U-937. The data set is described as above. Further details: species or system human. The note with it: U-937, histiocytic lymphoma. How it is done: as §1
A further data set deals with ovarian cancer organoids. The experiment in a line: Ovarian cancer organoids from two patients. It is filed as cell-based.
In the next data set the test system is MCF-7. The experiment in a line: Cytotoxicity of bioconjugates of varying DPR (Series 1). It is filed as cell-based, human. As to the method: (§2) A series of bioconjugates containing DM1, DM3, DM4 or ABZ981 synthesized under varying reaction conditions, resulting in different average DPRs. The cytotoxicity of these bioconjugates were evaluated in vitro in a panel of tumor cell lines (leukemia, breast, colorectal, ovarian and lung).

For the next data set, the system named is U937. The description is as above. It is filed as cell-based, human. To be noted: Series 1 bioconjugates. As to the method:
as §2

The next data set has as its system COLO-205. Put plainly: Cytotoxicity of bioconjugates of varying DPR (Series 2). The class given is cell-based, human. To be noted: Series 2 bioconjugates. How it is done:
as §2

The test system of a further data set is NCl-H522. The description is as above. The note with it: Series 2 bioconjugates. The class given is cell-based, human. As to the method:
as §2

The subject of the next data set is OV AR3. The description is as above. The class given is cell-based, human. To be noted: Series 2 bioconjugates. How it is done:
as §2

Data set [11] relates to SKOV-3. The description is as above. The class given is cell-based, human. The note with it: Series 2 bioconjugates. As to the method: as §2
The conditions of data set [12]: 25 mg/kg single IV, COLO-205 tumor.
Procedure: Bioconjugates containing DM4, DM1 or ABZ981 were resynthesized at a DPR of approximately 4 (Table 3) for comparative testing in a pharmacokinetic/biodistribution (PK/BD) study in mice subcutaneously implanted with COLO-205 tumor xenografts.
The volumes of administration were adjusted to deliver the same amount of bioconjugate (25 mg/kg) to each group of animals as a single IV injection into the tail vein. Blood samples were taken at 0.25 and 1 hours post-injection and blood and tissue samples were taken at 4, 8 and 24 hours to evaluate the pharmacokinetics and biodistribution of the bioconjugates (n=3 per timepoint). A commercially available ELISA kit was used to measure AFP levels and levels of free maytansine and its metabolites were measured by LC/MS.

Where a chain is given by its changes, count along the chain named.

In general, IC50 refers to the midpoint of a concentration-inhibition curve. Higher therefore signals a need for much substance.

B1: Mature [Asn233Gln]rhAFP(1-591), lacking glycosylation, produced in transgenic goats (ACT-101) (ligand)
chain: RTLHRNEYGIASILDSYQCTAEISLADLATIFFAQFVQEATYKEVSKMVKDALTAIEKPTGDEQSSGCLENQLPAFLEELCHEKEILEKYGHSDCCSQSEEGRHNCFLAHKKPTPASIPLFQVPEPVTSCEAYEEDRETFMNKFIYEIARRHPFLYAPTILLWAARYDKIIPSCCKAENAVECFQTKAATVTKELRESSLLNQHACAVMKNFGTRTFQAITVTKLSQKFTKVQFTEIQKLVLDVAHVHEHCCRGDVLDCLQDGEKIMSYICSQQDTLSNKITECCKLTTLERGQCIIHAENDEKPEGLSPNLNRFLGDRDFNQFSSGEKNIFLASFVHEYSRRHPQLAVSVILRVAKGYQELLEKCFQTENPLECQDKGEEELQKYIQESQALAKRSCGLFQKLGEYYLQNAFLVAYTKKAPQLTSSELMAITRKMAATAATCCQLSEDKLLACGEGAADIIIGHLCIRHEMTPVNPGVGQCCTSSYANRRPCFSSLVVDETYVPPAFSDDKFIFHKDLCQAQGVALQTMKQEFLINLVKQKPQITEEQLEAVIADFSGLLEKCCQGQEQEVCFAEEGQKLISKTRAALGV
modifications: fluorescent label, site not stated: Alexa Fluor-647 (Table 1), AlexaFluor488 (FIG. 1 competition), Alexa Fluor-488 or FITC (other studies)
For B1, the Highest AFP binding over 5 h Period (ng/million cells) was 71.1 in [1]; 126 in data set [2]; 84.3 in [3]; 19 in data set [4]; 31.3 in [5]; 71 in data set [6]. This molecule registered a Highest AFP binding over 5 h Period (ng/million cells) in data set [7] of 75.

B2: AFP-ABZ1827: AFP linked via mono-methylated disulfide linker to ABZ-981, mixture of n 1-11 (conjugate)
chain: B1 chain
modifications: non-natural residues
In the case of B2, the “effect on the growth of the COLO-205 tumors” value in [8] is recorded as “dramatic, inhibitory effect”.

B3: AFP-ABZ982 high DPR: AFP-ABZ982 bioconjugate, average DPR 5.81 (conjugate, UniProt P02771 19-609, looked up)
Alpha-fetoprotein: B1 chain with Q233N
modifications: ABZ982 toxin conjugate, DPR 5.81
Molecule B3 yielded an IC50 in the data set with COLO-205 cells of 4.1 nM. Further, the “Dose (MTD)” value in [9] is 10 mg/kg.

B4: AFP-ABZ982: AFP linked via di-methylated disulfide linker to ABZ-981, mixture of n 1-11 (conjugate)
chain: B1 chain
modifications: non-natural residues
Turning to B4, in data set [8], the “effect on the growth of the COLO-205 tumors” value was “dramatic, inhibitory effect”.

B5: ACT-101 (protein)
chain: B1 chain
Turning to B5, the “Highest AFP binding over 5 h Period” value with COLO 205 came out at 75.0 ng/million cells; in the data set on H522, 71.1 ng/million cells; in the data set on MCF7 it was 126 ng/million cells; in the data set on MOLT-4, 19.0 ng/million cells; in the data set with OVCAR-3, 71.0 ng/million cells; in the data set on SKOV-3 [10], 31.3 ng/million cells. The “Highest AFP binding over 5 h Period” value in the data set on U-937 was determined as 84.3 ng/million cells. Moreover, the “binding and uptake of fluorescently labeled protein by organoids” value in the data set on ovarian cancer organoids was “bound to and was rapidly taken up”. Besides, in the data set on ovarian cancer organoids (by 72 hr, even at low concentrations), the “apoptosis, AnnexinV staining” value is “innocuous to the cells”.

B6: AFP-ABZ982 low DPR: AFP-ABZ982 bioconjugate, average DPR 3.74 (conjugate, UniProt P02771 19-609, looked up)
Alpha-fetoprotein: B1 chain with Q233N
modifications: ABZ982 toxin conjugate, DPR 3.74
B6 came in with an IC50 in the data set on COLO-205 cells of 12.9 nM. Further, the “Dose (MTD)” value in data set [9] is 20 mg/kg.

B7: HM023-2: Series 1 AFP bioconjugate, toxin printed DME (DM3), DPR 4.8 (conjugate, UniProt P02771 19-609, looked up)
Alpha-fetoprotein: B1 chain with Q233N
modifications: DM3 maytansinoid toxin conjugate, DPR 4.8
Regarding B7, the “potency lower than ABZ981 and DM4 conjugates” value with MCF-7 (MCF-7, Series 1) was “approximately 3 fold”. Besides, the figures for the IC50 with MCF-7 (Series 1 bioconjugates) and in the data set with U937 were 4.62 nM and 1.6 nM, respectively.

B8: AFP-ABZ1827 low DPR: AFP-ABZ1827 bioconjugate, average DPR 3.92 (conjugate, UniProt P02771 19-609, looked up)
Alpha-fetoprotein: B1 chain with Q233N
modifications: ABZ1827 toxin conjugate, DPR 3.92
As for B8, the IC50 in the data set on COLO-205 cells was determined as 17.2 nM. Moreover, the “Dose (MTD)” value in data set [9] is listed as 10 mg/kg.

B9: AH00-3D: Series 2 AFP bioconjugate, toxin printed DME (DM3), DPR 4 (conjugate, UniProt P02771 19-609, looked up)
Alpha-fetoprotein: B1 chain with Q233N
modifications: DM3 maytansinoid toxin conjugate, DPR 4
B9: the IC50 came to 10.7 nM in the data set with COLO-205, 21.9 nM with NCl-H522, 5.47 nM in the data set on OV AR3 and 22.8 nM with SKOV-3 [11].

B10: AFP-ABZ981 conjugate: AFP bioconjugate releasing ABZ981, DPR 4.0, tested in the PK/BD study (conjugate, UniProt P02771 19-609, looked up)
Alpha-fetoprotein: B1 chain with Q233N
modifications: ABZ981-releasing toxin conjugate, DPR 4.0
For B10, in data set [12], the “Peak free toxin levels normalized to AFP (toxin release in tumors)” value is 18 % of the AFP levels in tumor; the “toxin level in tumor (free maytansine plus metabolites), times higher than DM1 conjugate” value is “approximately 3 times”; the “toxin level in tumor (free maytansine plus metabolites), times higher than DM4 conjugate” value is listed as around 22 times.

The values above are taken from US20250121075A1, “ALPHA-FETOPROTEIN BIOCONJUGATES FOR DISEASE TREATMENT” (priority 2021, published 2025).
